{
  "source": "paper PMC5440690",
  "about": "“Sirt1 carboxyl-domain is an ATP-repressible domain that is transferrable to other proteins” (Nature Communications, 2017)",
  "proteins": {"B1": {"name": "Sirt1 (Mus musculus) (protein)", "chain": "ADEVALALQAAGSPSAAAAMEAASQPADEPLRKRPRRDGPGLGRSPGEPSAAVAPAAAGCEAASAAAPAALWREAAGAAASAEREAPATAVAGDGDNGSGLRREPRAADDFDDDEGEEEDEAAAAAAAAAIGYRDNLLLTDGLLTNGFHSCESDDDDRTSHASSSDWTPRPRIGPYTFVQQHLMIGTDPRTILKDLLPETIPPPELDDMTLWQIVINILSEPPKRKKRKDINTIEDAVKLLQECKKIIVLTGAGVSVSCGIPDFRSRDGIYARLAVDFPDLPDPQAMFDIEYFRKDPRPFFKFAKEIYPGQFQPSLCHKFIALSDKEGKLLRNYTQNIDTLEQVAGIQRILQCHGSFATASCLICKYKVDCEAVRGDIFNQVVPRCPRCPADEPLAIMKPEIVFFGENLPEQFHRAMKYDKDEVDLLIVIGSSLKVRPVALIPSSIPHEVPQILINREPLPHLHFDVELLGDCDVIINELCHRLGGEYAKLCCNPVKLSEITEKPPRPQKELVHLSELPPTPLHISEDSSSPERTVPQDSSVIATLVDQATNNNVNDLEVSESSCVEEKPQEVQTSRNVENINVENPDFKAVGSSTADKNERTSVAETVRKCWPNRLAKEQISKRLEGNQYLFVPPNRYIFHGAEVYSDSEDDVLSSSSCGSNSDSGTCQSPSLEEPLEDESEIEEFYNGLEDDTERPECAGGSGFGADGGDQEVVNEAIATRQELTDVNYPSDKS", "notes": "recombinant WT Sirt1"}},
  "substrate": "NC(=O)c1ccc[n+]([C@@H]2O[C@H](COP(=O)([O-])OP(=O)(O)OC[C@H]3O[C@@H](n4cnc5c(N)ncnc54)[C@H](O)[C@@H]3O)[C@@H](O)[C@H]2O)c1",
  "assay": "steady-state deacetylation kinetics (Km)",
  "format": "biochemical, Mus musculus",
  "data": [
    {"protein": "B1", "values": [
      {"measurement": "Km", "result": "203.08 ± 13.24", "unit": "µM"}
    ]}
  ]
}
